These results are taken from paper PMC10783494, “A conserved protein inhibitor brings under check the activity of RNase E in cyanobacteria”.

The target in series [1] is RneN396, the catalytic core of Anabaena RNase E (1-396 aa) (Anabaena PCC 7120). In words: SPR; Biacore, 25°C, PBS pH 7.4; RneN396 (2 uM) immobilized on a streptavidin-coated sensor chip; RebA injected at 0-1000 nM; steady-state affinity.
The target is the same in series [2]. Put plainly: native gel or EMSA; RneN396, RebA and their mixture incubated for 30 min and separated on a native gel; the band of the complex excised and analysed by SDS-PAGE beside defined molar ratios, bands quantified with ImageJ.
Series [3] deals with RneN412, the catalytic region of Anabaena RNase E (1-412 aa) (Anabaena PCC 7120).
For a further series, the target named is RebA (Anabaena PCC 7120, UniProt A0ABR7ZDZ7 1-423). Put plainly: EMSA; RebA up to 50-fold molar excess; 2 mM EDTA; 20 mM Tris-HCl pH 8.0, 200 mM NaCl, 0.1 mM DTT, 2 mM EDTA, 5% glycerol, 1 mg/ml BSA; 30 min at 30 C; 5% native PAGE at 4 C. As to conditions: protein: recombinant; tags: N-terminal Strep tag; label: 3' FAM.
Series [4] deals with T1, RneN396, the catalytic core of Anabaena RNase E (1-396 aa) (Anabaena PCC 7120).
T1 chain: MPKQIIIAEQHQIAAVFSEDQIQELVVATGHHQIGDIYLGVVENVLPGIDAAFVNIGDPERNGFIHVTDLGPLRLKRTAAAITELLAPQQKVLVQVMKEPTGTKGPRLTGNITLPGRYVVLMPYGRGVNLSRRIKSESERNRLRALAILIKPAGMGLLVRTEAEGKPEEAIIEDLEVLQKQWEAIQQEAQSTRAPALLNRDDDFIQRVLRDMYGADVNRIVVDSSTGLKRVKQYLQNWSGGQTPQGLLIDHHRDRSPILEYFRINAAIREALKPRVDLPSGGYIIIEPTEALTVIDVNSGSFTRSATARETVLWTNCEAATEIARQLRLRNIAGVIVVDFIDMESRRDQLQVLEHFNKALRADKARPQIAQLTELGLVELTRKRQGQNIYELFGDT
In words: BLI.

In turn, “full-length RebA bearing an N-terminal Strep tag (recombinant) (natural protein)” displayed a Kd in series [1] of 10.3 nM. Also, the stoichiometry N in series [2] is 1 RneN396:RebA. For the same molecule, in series [3], the cleavage of 5′ p-LU13-FAM by RneN412 (0.4 nM) with increasing RebA: ratio of RebA to RneN412 for half-inhibition (RebA:RneN412 ratio) was 1 and the cleavage of 5′ p-LU13-FAM by RneN412 with increasing RebA (up to a RebA:RneN412 ratio of 4:1): drop of activity was 90%.

On to GAGACAGUAUUUG (ssRNA, 5' monophosphate) [5' p-LU13-FAM], for which the binding result with RebA is recorded as “no binding”.

B1: full-length RebA bearing an N-terminal Strep tag (recombinant) (natural protein)
chain: MRKLTNSDKQEILKLYRETAETTSTLAERYDVSNSTISRLLKSTLPEDEYEFLVSLKRAARTPEGRAQVSYDQIPFVGQPEEAPVISTQKVELPEPITKPEPSRVEDKPTPVIRKGRQAKPAPLPEENPQPLLAEEEKPTPVIRRGRQAKPAPLPEEEKPTPVIRKARQAKPEFFAEEEEKPTPVIRKARQAKPEFFAEEEEKPTPVIRRVRRRSASEEEDREPIARQLEIPVGKPQEIISVSSPSLEDETAEVTPMGYAPPQVIAEMLGEDLLDESEDLDDLEEDLDEDLDEEDYEDEEDDLEEARPLVTRRRFGDAAVQVLPLSVASLPKTCYLVIDRSSELITRPLKDFGDLGQIPSLETQQRTLPIFDNHRVAKRFSTKRDRVIKVPDSRMLHKARTHLQAKGITRLLIDGQVYSLSLV
Consider B1, for which the off-rate (koff) in series [4] was found to be 0.000112 s⁻¹.
